We go through one substance from article PMC4600729.

The target of experiment [1] is taxol-stabilized microtubules (polymer of alpha/beta-tubulin), immobilized. Description: single-molecule TIRF microscopy; GFP-labelled motor (25 pM) in 1 mM ATP on immobilized taxol-stabilized microtubules; pause lifetimes at plus ends, exponential fit; BRB80 pH 6.8.
Experiment [2] shares this target. The experiment can be described thus: single-molecule TIRF microscopy; Kin5_18GFP landing on and dissociating from the lattice of an immobilized microtubule in 1 mM ADP; exponential fit of binding durations.
For experiment [3] the target is unchanged. Description: single-molecule TIRF microscopy; spiking experiment, crowded conditions: pM GFP-labelled motor mixed with 15-25 nM unlabelled motor; binding durations at plus ends of taxol-stabilized microtubules.

Chain of taxol-stabilized microtubules (polymer of alpha/beta-tubulin), immobilized (P68363 whole entry, chain 1 of 2): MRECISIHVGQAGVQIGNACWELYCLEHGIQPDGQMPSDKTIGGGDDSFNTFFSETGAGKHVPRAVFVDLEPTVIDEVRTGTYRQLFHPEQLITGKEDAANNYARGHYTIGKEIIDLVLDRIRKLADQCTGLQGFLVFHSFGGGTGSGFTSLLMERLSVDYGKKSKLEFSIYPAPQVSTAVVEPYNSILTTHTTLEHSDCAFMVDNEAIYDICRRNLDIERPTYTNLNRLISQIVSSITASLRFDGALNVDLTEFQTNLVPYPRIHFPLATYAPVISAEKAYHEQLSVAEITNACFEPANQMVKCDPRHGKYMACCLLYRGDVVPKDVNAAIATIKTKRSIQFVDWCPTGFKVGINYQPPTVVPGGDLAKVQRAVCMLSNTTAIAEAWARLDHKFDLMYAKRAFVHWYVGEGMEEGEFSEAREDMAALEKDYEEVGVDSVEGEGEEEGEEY
Chain of taxol-stabilized microtubules (polymer of alpha/beta-tubulin), immobilized (A8K068 whole entry, chain 2 of 2, further chain): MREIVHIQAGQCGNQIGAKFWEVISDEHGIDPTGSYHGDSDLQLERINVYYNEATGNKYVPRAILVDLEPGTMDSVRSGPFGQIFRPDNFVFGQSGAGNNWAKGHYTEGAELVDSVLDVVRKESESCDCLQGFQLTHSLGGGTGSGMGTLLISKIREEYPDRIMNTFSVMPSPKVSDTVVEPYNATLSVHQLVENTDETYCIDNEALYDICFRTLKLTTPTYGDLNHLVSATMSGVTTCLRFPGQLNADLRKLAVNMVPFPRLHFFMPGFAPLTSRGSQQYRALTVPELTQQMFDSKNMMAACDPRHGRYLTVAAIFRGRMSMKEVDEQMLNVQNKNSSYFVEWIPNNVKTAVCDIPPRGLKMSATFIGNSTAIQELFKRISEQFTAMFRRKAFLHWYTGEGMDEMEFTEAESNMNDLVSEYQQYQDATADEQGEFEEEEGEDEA

Take “Kin5_18GFP (dimeric kinesin-5: motor domain and native 18-residue neck linker of Xenopus laevis Eg5 fused to the proximal coiled coil of Drosophila conventional kinesin heavy chain, GFP-tagged)”: in experiment [1], the mean pause duration at plus ends was 7 s. In addition, in experiment [2], the mean binding duration on the microtubule lattice in 1 mM ADP stood at 1.07 s. The end duration at plus ends under crowded conditions in experiment [3] was determined as 2.26 s.
